1 molecule from patent publication US20260240884A1, “MIXTURE OF HUMAN MILK OLIGOSACCHARIDES” (N.V. Nutricia, priority 2023, published 2026) can be followed below.

The subject of the assay is IL-8 secretion of HT-29 cells. The experiment in a line: IL-8 secretion and viability of HT-29 cells pre-incubated with test compounds and challenged with Lyovec-complexed Poly I:C. Type of assay: cell-based, Human.

B1: Lactoferrin: lactoferrin, control test compound (protein, UniProt P02788 20-710, looked up)
Lactotransferrin: GRRRSVQWCAVSQPEATKCFQWQRNMRKVRGPPVSCIKRDSPIQCIQAIAENRADAVTLDGGFIYEAGLAPYKLRPVAAEVYGTERQPRTHYYAVAVVKKGGSFQLNELQGLKSCHTGLRRTAGWNVPIGTLRPFLNWTGPPEPIEAAVARFFSASCVPGADKGQFPNLCRLCAGTGENKCAFSSQEPYFSYSGAFKCLRDGAGDVAFIRESTVFEDLSDEAERDEYELLCPDNTRKPVDKFKDCHLARVPSHAVVARSVNGKEDAIWNLLRQAQEKFGKDKSPKFQLFGSPSGQKDLLFKDSAIGFSRVPPRIDSGLYLGSGYFTAIQNLRKSEEEVAARRARVVWCAVGEQELRKCNQWSGLSEGSVTCSSASTTEDCIALVLKGEADAMSLDGGYVYTAGKCGLVPVLAENYKSQQSSDPDPNCVDRPVEGYLAVAVVRRSDTSLTWNSVKGKKSCHTAVDRTAGWNIPMGLLFNQTGSCKFDEYFSQSCAPGSDPRSNLCALCIGDEQGENKCVPNSNERYYGYTGAFRCLAENAGDVAFVKDVTVLQNTDGNNNEAWAKDLKLADFALLCLDGKRKPVTEARSCHLAMAPNHAVVSRMDKVERLKQVLLHQQAKFGRNGSDCPDKFCLFQSETKNLLFNDNTECLARLHGKTTYEKYLGPQYVAGITNLKKCSTSPLLEACEFLRK
B1: the “Mean IL-8 secretion” value runs as follows: (0.1% + Poly I:C, Poly I:C alone 21799.28) 9201.69 pg/mL; (0.1%, no Poly I:C, Medium 359.54) 343.19 pg/mL.
